Data taken from PMC10516938, “Conformational dynamics of cohesin/Scc2 loading complex are regulated by Smc3 acetylation and ATP binding” (Nature Communications, 2023).

Columns and labels:
Experiment in all cases: cross-linking; in vivo BMOE cross-link of cysteine pairs in exponentially grown yeast cells (on ice, 6 min); Scc1-PK immunoprecipitated, western blot
Conditions in all cases: partners not purified
Smc3 R1222C = biological target: T1, Smc3 R1222C (S. cerevisiae, UniProt P47037 1-1230, R1222C)
T1 construct: Smc3, S. cerevisiae; source: S. cerevisiae W303, in vivo, whole-cell extract
T1 sequence (looked up): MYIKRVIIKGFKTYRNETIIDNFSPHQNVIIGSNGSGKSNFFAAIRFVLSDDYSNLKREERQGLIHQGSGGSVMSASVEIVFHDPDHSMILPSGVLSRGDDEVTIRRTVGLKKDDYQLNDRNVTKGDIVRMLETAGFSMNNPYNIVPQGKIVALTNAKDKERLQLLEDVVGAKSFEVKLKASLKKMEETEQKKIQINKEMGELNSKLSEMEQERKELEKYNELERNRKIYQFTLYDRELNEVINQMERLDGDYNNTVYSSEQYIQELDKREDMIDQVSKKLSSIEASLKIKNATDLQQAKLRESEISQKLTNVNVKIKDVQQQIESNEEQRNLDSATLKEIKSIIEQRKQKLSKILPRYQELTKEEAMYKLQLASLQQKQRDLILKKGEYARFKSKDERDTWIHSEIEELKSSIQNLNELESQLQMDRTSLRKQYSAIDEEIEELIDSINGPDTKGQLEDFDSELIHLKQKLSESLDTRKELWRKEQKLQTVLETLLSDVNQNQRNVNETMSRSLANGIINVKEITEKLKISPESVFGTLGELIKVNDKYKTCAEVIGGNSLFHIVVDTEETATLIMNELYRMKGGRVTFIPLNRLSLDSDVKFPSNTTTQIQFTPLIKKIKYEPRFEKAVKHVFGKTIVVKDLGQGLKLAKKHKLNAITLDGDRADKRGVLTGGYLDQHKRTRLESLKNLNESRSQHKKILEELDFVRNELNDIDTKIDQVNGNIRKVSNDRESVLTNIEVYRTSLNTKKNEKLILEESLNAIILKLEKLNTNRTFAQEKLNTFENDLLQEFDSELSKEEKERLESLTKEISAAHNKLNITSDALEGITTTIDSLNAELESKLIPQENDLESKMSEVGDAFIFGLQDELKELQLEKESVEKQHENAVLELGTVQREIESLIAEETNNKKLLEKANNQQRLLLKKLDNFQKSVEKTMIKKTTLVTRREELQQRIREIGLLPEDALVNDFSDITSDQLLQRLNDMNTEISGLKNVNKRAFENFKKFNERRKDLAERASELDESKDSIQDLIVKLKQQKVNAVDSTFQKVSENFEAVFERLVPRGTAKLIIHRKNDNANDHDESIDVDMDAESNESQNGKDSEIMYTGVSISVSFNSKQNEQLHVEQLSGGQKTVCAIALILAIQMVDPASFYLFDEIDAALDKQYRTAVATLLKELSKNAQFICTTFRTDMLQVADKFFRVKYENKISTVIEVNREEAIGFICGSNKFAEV

Smc3^QQ R1222C = biological target: T2, Smc3^QQ R1222C (S. cerevisiae, UniProt P47037 1-1230, K112Q | K113Q | R1222C)
T2 construct: Smc3, S. cerevisiae; source: S. cerevisiae W303, in vivo, whole-cell extract
T2 sequence (looked up): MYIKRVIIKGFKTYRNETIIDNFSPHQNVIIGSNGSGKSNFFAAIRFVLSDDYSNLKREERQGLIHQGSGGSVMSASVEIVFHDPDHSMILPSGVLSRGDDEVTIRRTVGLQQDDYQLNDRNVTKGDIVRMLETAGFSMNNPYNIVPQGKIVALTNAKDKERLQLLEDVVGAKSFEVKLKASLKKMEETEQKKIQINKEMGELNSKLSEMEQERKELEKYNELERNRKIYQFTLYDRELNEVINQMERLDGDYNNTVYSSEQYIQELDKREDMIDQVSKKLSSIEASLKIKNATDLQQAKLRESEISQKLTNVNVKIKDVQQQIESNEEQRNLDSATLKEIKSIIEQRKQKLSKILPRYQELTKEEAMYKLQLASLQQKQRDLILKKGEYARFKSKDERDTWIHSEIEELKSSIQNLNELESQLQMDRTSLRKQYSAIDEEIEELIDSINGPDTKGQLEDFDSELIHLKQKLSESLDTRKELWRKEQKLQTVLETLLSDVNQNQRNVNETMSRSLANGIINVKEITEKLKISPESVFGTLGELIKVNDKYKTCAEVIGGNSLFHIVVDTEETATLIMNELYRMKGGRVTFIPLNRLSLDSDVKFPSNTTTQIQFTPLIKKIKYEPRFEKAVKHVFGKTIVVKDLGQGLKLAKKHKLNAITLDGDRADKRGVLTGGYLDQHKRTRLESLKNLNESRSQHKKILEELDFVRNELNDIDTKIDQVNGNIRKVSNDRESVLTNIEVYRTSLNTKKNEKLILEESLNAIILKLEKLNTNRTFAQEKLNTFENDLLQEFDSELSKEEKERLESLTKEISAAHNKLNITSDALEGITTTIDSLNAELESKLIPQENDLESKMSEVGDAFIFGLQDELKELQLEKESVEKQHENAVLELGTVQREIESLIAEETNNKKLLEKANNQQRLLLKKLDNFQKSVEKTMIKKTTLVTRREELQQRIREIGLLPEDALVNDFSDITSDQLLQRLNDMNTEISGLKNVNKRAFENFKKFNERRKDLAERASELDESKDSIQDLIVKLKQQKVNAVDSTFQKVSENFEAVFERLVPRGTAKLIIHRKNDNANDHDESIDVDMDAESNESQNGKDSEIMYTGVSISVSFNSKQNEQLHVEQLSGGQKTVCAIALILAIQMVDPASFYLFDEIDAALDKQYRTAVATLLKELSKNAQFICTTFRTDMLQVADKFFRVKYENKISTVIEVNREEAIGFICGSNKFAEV

Smc3 K38I R1222C = biological target: T3, Smc3 K38I R1222C (S. cerevisiae, UniProt P47037 1-1230, K38I | R1222C)
T3 construct: source: S. cerevisiae W303, in vivo, whole-cell extract
T3 sequence (looked up): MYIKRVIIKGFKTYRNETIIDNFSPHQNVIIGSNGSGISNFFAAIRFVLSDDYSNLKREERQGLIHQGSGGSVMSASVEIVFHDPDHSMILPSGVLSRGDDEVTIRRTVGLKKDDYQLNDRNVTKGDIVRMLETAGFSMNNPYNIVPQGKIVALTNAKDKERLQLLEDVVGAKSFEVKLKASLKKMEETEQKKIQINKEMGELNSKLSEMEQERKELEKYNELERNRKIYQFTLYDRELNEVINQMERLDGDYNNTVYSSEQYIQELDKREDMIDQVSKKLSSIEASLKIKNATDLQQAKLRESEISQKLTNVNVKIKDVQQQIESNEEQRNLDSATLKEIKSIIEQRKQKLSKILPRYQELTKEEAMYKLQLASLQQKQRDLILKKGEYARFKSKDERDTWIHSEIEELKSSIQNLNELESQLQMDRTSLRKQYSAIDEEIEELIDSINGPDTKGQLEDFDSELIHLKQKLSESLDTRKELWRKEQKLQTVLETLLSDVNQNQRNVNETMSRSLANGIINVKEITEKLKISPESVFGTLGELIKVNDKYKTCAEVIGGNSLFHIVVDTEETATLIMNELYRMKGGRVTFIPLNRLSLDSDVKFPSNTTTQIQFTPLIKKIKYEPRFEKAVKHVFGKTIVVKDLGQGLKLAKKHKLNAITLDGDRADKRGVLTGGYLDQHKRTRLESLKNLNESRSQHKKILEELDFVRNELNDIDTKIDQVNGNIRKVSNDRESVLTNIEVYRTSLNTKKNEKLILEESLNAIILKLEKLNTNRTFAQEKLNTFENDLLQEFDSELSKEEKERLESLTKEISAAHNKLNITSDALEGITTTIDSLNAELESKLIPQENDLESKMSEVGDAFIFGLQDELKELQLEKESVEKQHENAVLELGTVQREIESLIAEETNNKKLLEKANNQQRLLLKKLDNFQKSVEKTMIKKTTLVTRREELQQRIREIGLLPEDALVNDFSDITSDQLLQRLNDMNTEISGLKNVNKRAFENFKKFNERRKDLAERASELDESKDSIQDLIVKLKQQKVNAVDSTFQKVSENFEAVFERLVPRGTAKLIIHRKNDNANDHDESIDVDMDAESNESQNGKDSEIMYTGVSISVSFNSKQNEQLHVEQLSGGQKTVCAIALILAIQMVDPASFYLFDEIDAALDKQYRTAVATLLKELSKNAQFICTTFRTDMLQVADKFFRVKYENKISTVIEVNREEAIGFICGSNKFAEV

crosslinking efficiency (Smc3 R1222C): ~23%
crosslinking efficiency (Smc3^QQ R1222C): 24%
crosslinking efficiency (Smc3 K38I R1222C): 5%
B1: Smc1 N1192C (natural protein, S. cerevisiae, UniProt P32908 1-1225, looked up)
chain: MGRLVGLELSNFKSYRGVTKVGFGESNFTSIIGPNGSGKSNMMDAISFVLGVRSNHLRSNILKDLIYRGVLNDENSDDYDNEGAASSNPQSAYVKAFYQKGNKLVELMRIISRNGDTSYKIDGKTVSYKDYSIFLENENILIKAKNFLVFQGDVEQIAAQSPVELSRMFEEVSGSIQYKKEYEELKEKIEKLSKSATESIKNRRRIHGELKTYKEGINKNEEYRKQLDKKNELQKFQALWQLYHLEQQKEELTDKLSALNSEISSLKGKINNEMKSLQRSKSSFVKESAVISKQKSKLDYIFKDKEKLVSDLRLIKVPQQAAGKRISHIEKRIESLQKDLQRQKTYVERFETQLKVVTRSKEAFEEEIKQSARNYDKFKLNENDLKTYNCLHEKYLTEGGSILEEKIAVLNNDKREIQEELERFNKRADISKRRITEELSITGEKLDTQLNDLRVSLNEKNALHTERLHELKKLQSDIESANNQEYDLNFKLRETLVKIDDLSANQRETMKERKLRENIAMLKRFFPGVKGLVHDLCHPKKEKYGLAVSTILGKNFDSVIVENLTVAQECIAFLKKQRAGTASFIPLDTIETELPTLSLPDSQDYILSINAIDYEPEYEKAMQYVCGDSIICNTLNIAKDLKWKKGIRGKLVTIEGALIHKAGLMTGGISGDANNRWDKEEYQSLMSLKDKLLIQIDELSNGQRSNSIRAREVENSVSLLNSDIANLRTQVTQQKRSLDENRLEIKYHNDLIEKEIQPKITELKKKLDDLENTKDNLVKEKEALQNNIFKEFTSKIGFTIKEYENHSGELMRQQSKELQQLQKQILTVENKLQFETDRLSTTQRRYEKAQKDLENAQVEMKSLEEQEYAIEMKIGSIESKLEEHKNHLDELQKKFVTKQSELNSSEDILEDMNSNLQVLKRERDGIKEDIEKFDLERVTALKNCKISNINIPISSETTIDDLPISSTDNEAITISNSIDINYKGLPKKYKENNTDSARKELEQKIHEVEEILNELQPNARALERYDEAEGRFEVINNETEQLKAEEKKILNQFLKIKKKRKELFEKTFDYVSDHLDAIYRELTKNPNSNVELAGGNASLTIEDEDEPFNAGIKYHATPPLKRFKDMEYLSGGEKTVAALALLFAINSYQPSPFFVLDEVDAALDITNVQRIAAYIRRHRNPDLQFIVISLKCTMFEKSDALVGVYRQQQENSSKIITLDLSNYAE
notes: Smc1, S. cerevisiae; source: S. cerevisiae W303, in vivo, whole-cell extract
